US20250339531A1, “DUX4 POLYPEPTIDES AND NUCLEIC ACIDS FOR TREATING INFLAMMATORY AND AUTOIMMUNE CONDITIONS” (Fred Hutchinson Cancer Center, priority 2021, published 2025)

B1: ASPH (protein)
chain: MAQRKNAKSSGNSSSSGSGSGSTSAGSSSPGARRETKHGGHKNGRKGGLSGTSFFTWFMVIALLGVWTSVAVVWFDLVDYEEVLGKLGIYDADGDGDFDVDDAKVLLGLKERSTSEPAVPPEEAEPHTEPEEQVPVEAEPQNIEDEAKEQIQSLLHEMVHAEHVEGEDLQQEDGPTGEPQQEDDEFLMATDVDDRFETLEPEVSHEETEHSYHVEETVSQDCNQDMEEMMSEQENPDSSEPVVEDERLHHDTDDVTYQVYEEQAVYEPLENEGIEITEVTAPPEDNPVEDSQVIVEEVSIFPVEEQQEVPPETNRKTDDPEQKAKVKKKKPKLLNKFDKTIKAELDAAEKLRKRGKIEEAVNAFKELVRKYPQSPRARYGKAQCEDDLAEKRRSNEVLRGAIETYQEVASLPDVPADLLKLSLKRRSDRQQFLGHMRGSLLTLQRLVQLFPNDTSLKNDLGVGYLLIGDNDNAKKVYEEVLSVTPNDGFAKVHYGFILKAQNKIAESIPYLKEGIESGDPGTDDGRFYFHLGDAMQRVGNKEAYKWYELGHKRGHFASVWQRSLYNVNGLKAQPWWTPKETGYTELVKSLERNWKLIRDEGLAVMDKAKGLFLPEDENLREKGDWSQFTLWQQGRRNENACKGAPKTCTLLEKFPETTGCRRGQIKYSIMHPGTHVWPHTGPTNCRLRMHLGLVIPKEGCKIRCANETKTWEEGKVLIFDDSFEHEVWQDASSFRLIFIVDVWHPELTPQQRRSLPAI
B2: RPN1 (protein)
chain: ASSEAPPLINEDVKRTVDLSSHLAKVTAEVVLAHLGGGSTSRATSFLLALEPELEARLAHLGVQVKGEDEEENNLEVRETKIKGKSGRFFTVKLPVALDPGAKISVIVETVYTHVLHPYPTQITQSEKQFVVFEGNHYFYSPYPTKTQTMRVKLASRNVESYTKLGNPTRSEDLLDYGPFRDVPAYSQDTFKVHYENNSPFLTITSMTRVIEVSHWGNIAVEENVDLKHTGAVLKGPFSRYDYQRQPDSGISSIRSFKTILPAAAQDVYYRDEIGNVSTSHLLILDDSVEMEIRPRFPLFGGWKTHYIVGYNLPSYEYLYNLGDQYALKMRFVDHVFDEQVIDSLTVKIILPEGAKNIEIDSPYEISRAPDELHYTYLDTFGRPVIVAYKKNLVEQHIQDIVVHYTFNKVLMLQEPLLVVAAFYILFFTVIIYVRLDFSITKDPAAEARMKVACITEQVLTLVNKRIGLYRHFDETVNRYKQSRDISTLNSGKKSLETEHKALTSEIALLQSRLKTEGSDLCDRVSEMQKLDAQVKELVLKSAVEAERLVAGKLKKDTYIENEKLISGKRQELVTKIDHILDAL
B3: AP2B1 (protein)
chain: TDSKYFTTNKKGEIFELKAELNNEKKEKRKEAVKKVIAAMTVGKDVSSLFPDVVNCMQTDNLELKKLVYLYLMNYAKSQPDMAIMAVNSFVKDCEDPNPLIRALAVRTMGCIRVDKITEYLCEPLRKCLKDEDPYVRKTAAVCVAKLHDINAQMVEDQGFLDSLRDLIADSNPMVVANAVAALSEISESHPNSNLLDLNPQNINKLLTALNECTEWGQIFILDCLSNYNPKDDREAQSICERVTPRLSHANSAVVLSAVKVLMKFLELLPKDSDYYNMLLKKLAPPLVTLLSGEPEVQYVALRNINLIVQKRPEILKQEIKVFFVKYNDPIYVKLEKLDIMIRLASQANIAQVLAELKEYATEVDVDFVRKAVRAIGRCAIKVEQSAERCVSTLLDLIQTKVNYVVQEAIVVIRDIFRKYPNKYESIIATLCENLDSLDEPDARAAMIWIVGEYAERIDNADELLESFLEGFHDESTQVQLTLLTAIVKLFLKKPSETQELVQQVLSLATQDSDNPDLRDRGYIYWRLLSTDPVTAKEVVLSEKPLISEETDLIEPTLLDELICHIGSLASVYHKPPNAFVEGSHGIHRKHLPIHHGSTDAGDSPVGTTTATNLEQPQVIPSQGDLLGDLLNLDLGPPVNVPQVSSMQMGAVDLLGGGLDSLVGQSFIPSSVPATFAPSPTPAVVSSGLNDLFELSTGIGMAPGGYVAPKAVWLPAVKAKGLEISGTFTHRQGHIYMEMNFTNKALQHMTDFAIQFNKNSFGVIPSTPLAIHTPLMPNQSIDVSLPLNTLGPVMKMEPLNNLQVAVKNNIDVFYFSCLIPLNVLFVEDGKMERQVFLATWKDIPNENELQFQIKECHLNADTVSSKLQNNNVYTIAKRNVEGQDMLYQSLKLTNGIWILAELRIQPGNPNYTLSLKCRAPEVSQYIYQVYDSILKN
B4: P10809 (protein, UniProt P10809 1-573, looked up)
chain: MLRLPTVFRQMRPVSRVLAPHLTRAYAKDVKFGADARALMLQGVDLLADAVAVTMGPKGRTVIIEQSWGSPKVTKDGVTVAKSIDLKDKYKNIGAKLVQDVANNTNEEAGDGTTTATVLARSIAKEGFEKISKGANPVEIRRGVMLAVDAVIAELKKQSKPVTTPEEIAQVATISANGDKEIGNIISDAMKKVGRKGVITVKDGKTLNDELEIIEGMKFDRGYISPYFINTSKGQKCEFQDAYVLLSEKKISSIQSIVPALEIANAHRKPLVIIAEDVDGEALSTLVLNRLKVGLQVVAVKAPGFGDNRKNQLKDMAIATGGAVFGEEGLTLNLEDVQPHDLGKVGEVIVTKDDAMLLKGKGDKAQIEKRIQEIIEQLDVTTSEYEKEKLNERLAKLSDGVAVLKVGGTSDVEVNEKKDRVTDALNATRAAVEEGIVLGGGCALLRCIPALDSLTPANEDQKIGIEIIKRTLKIPAMTIAKNAGVEGSLIVEKIMQSSSEVGYDAMAGDFVNMVEKGIIDPTKVVRTALLDAAGVASLLTTAEVVVTEIPKEEKDPGMGAMGGMGGGMGGGMF
modifications: full-length
B5: P4HA1 (protein)
chain: HPGFFTSIGQMTDLIHTEKDLVTSLKDYIKAEEDKLEQIKKWAEKLDRLTSTATKDPEGFVGHPVNAFKLMKRLNTEWSELENLVLKDMSDGFISNLTIQRQYFPNDEDQVGAAKALLRLQDTYNLDTDTISKGNLPGVKHKSFLTAEDCFELGKVAYTEADYYHTELWMEQALRQLDEGEISTIDKVSVLDYLSYAVYQQGDLDKALLLTKKLLELDPEHQRANGNLKYFEYIMAKEKDVNKSASDDQSDQKTTPKKKGVAVDYLPERQKYEMLCRGEGIKMTPRRQKKLFCRYHDGNRNPKFILAPAKQEDEWDKPRIIRFHDIISDAEIEIVKDLAKPRLRRATISNPITGDLETVHYRISKSAWLSGYENPVVSRINMRIQDLTGLDVSTAEELQVANYGVGGQYEPHFDFARKDEPDAFKELGTGNRIATWLFYMSDVSAGGATVFPEVGASVWPKKGTAVFWYNLFASGEGDYSTRHAACPVLVGNKWVSNKWLHERGQEFRRPCTLSELE
B6: P04844 (protein, UniProt P04844 1-631, looked up)
chain: MAPPGSSTVFLLALTIIASTWALTPTHYLTKHDVERLKASLDRPFTNLESAFYSIVGLSSLGAQVPDAKKACTYIRSNLDPSNVDSLFYAAQASQALSGCEISISNETKDLLLAAVSEDSSVTQIYHAVAALSGFGLPLASQEALSALTARLSKEETVLATVQALQTASHLSQQADLRSIVEEIEDLVARLDELGGVYLQFEEGLETTALFVAATYKLMDHVGTEPSIKEDQVIQLMNAIFSKKNFESLSEAFSVASAAAVLSHNRYHVPVVVVPEGSASDTHEQAILRLQVTNVLSQPLTQATVKLEHAKSVASRATVLQKTSFTPVGDVFELNFMNVKFSSGYYDFLVEVEGDNRYIANTVELRVKISTEVGITNVDLSTVDKDQSIAPKTTRVTYPAKAKGTFIADSHQNFALFFQLVDVNTGAELTPHQTFVRLHNQKTGQEVVFVAEPDNKNVYKFELDTSERKIEFDSASGTYTLYLIIGDATLKNPILWNVADVVIKFPEEEAPSTVLSQNLFTPKQEIQHLFREPEKRPPTVVSNTFTALILSPLLLLFALWIRIGANVSNFTFAPSTIIFHLGHAAMLGLMYVYWTQLNMFQTLKYLAILGSVTFLAGNRMLAQQAVKRTAH
modifications: full-length
B7: PDIA3 (protein)
chain: SDVLELTDDNFESRISDTGSAGLMLVEFFAPWCGHCKRLAPEYEAAATRLKGIVPLAKVDCTANTNTCNKYGVSGYPTLKIFRDGEEAGAYDGPRTADGIVSHLKKQAGPASVPLRTEEEFKKFISDKDASIVGFFDDSFSEAHSEFLKAASNLRDNYRFAHTNVESLVNEYDDNGEGIILFRPSHLTNKFEDKTVAYTEQKMTSGKIKKFIQENIFGICPHMTEDNKDLIQGKDLLIAYYDVDYEKNAKGSNYWRNRVMMVAKKFLDAGHKLNFAVASRKTFSHELSDFGLESTAGEIPVVAIRTAKGEKFVMQEEFSRDGKALERFLQDYFDGNLKRYLKSEPIPESNDGPVKVVVAENFDEIVNNENKDVLIEFYAPWCGHCKNLEPKYKELGEKLSKDPNIVIAKMDATANDVPSPYEVRGFPTIYFSPANKKLNPKKYEGGRELSDFISYLQREATNPPVIQEEKPKKKKKAQEDL
B8: SERPINH1 (protein)
chain: AEVKKPAAAAAPGTAEKLSPKAATLAERSAGLAFSLYQAMAKDQAVENILVSPVVVASSLGLVSLGGKATTASQAKAVLSAEQLRDEEVHAGLGELLRSLSNSTARNVTWKLGSRLYGPSSVSFADDFVRSSKQHYNCEHSKINFRDKRSALQSINEWAAQTTDGKLPEVTKDVERTDGALLVNAMFFKPHWDEKFHHKMVDNRGFMVTRSYTVGVMMMHRTGLYNYYDDEKEKLQIVEMPLAHKLSSLIILMPHHVEPLERLEKLLTKEQLKIWMGKMQKKAVAISLPKGVVEVTHDLQKHLAGLGLTEAIDKNKADLSRMSGKKDLYLASVFHATAFELDTDGNPFDQDIYGREELRSPKLFYADHPFIFLVRDTQSGSLLFIGRLVRPKGDKMRDEL

Test system: proteins that co-immunoprecipitated with DUX4-CTD constructs expressed in MB135 myoblasts
Assay: LC-MS of proteins co-immunoprecipitated with DUX4-CTD (Table 1) and western validation
Format: binding, human
Set-up: key to 4. mL1dL2 + Dox + IFNG / 4. + IFNG mix / 4. longCTD + Dox + IFNG / 3. + IFNg + Dox longCTD / 3. + Dox longCTD / 3. + IFNG longCTD: peptide-spectrum matches (PSMs) per protein
Details: for 3. + IFNg + Dox longCTD: experiment 3, IFNg + Dox; for SUM of PSMS: sum over all samples
Summary of the method: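 Two independent experiments compared uninduced, doxycycline and doxycycline+IFNG MB135iDUX4-CTD (plus MB135iDUX4mL1dL2) myoblasts. Anti-FLAG pulldowns (3 h, 4 °C) were eluted in LDS buffer for western validation or with FLAG peptide for trypsin digestion and Orbitrap LC-MS; hits needed ≥2 PSMs in both experiments, ranked by total PSMs.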

[1] = LC-MS value per protein co-immunoprecipitated with DUX4-CTD construct mL1dL2 in MB135 myoblasts, + Dox + IFNG, kind of count not given
[2] = LC-MS value per protein co-immunoprecipitated from MB135 myoblasts, + IFNG mix sample (no Dox), kind of count not given
[3] = LC-MS counts of the listed protein co-immunoprecipitated with DUX4-CTD bait mL1dL2, experiment 4, Dox + IFNG

Row | Molecule | 4. mL1dL2 + Dox + IFNG [1] | 4. + IFNG mix [2] | further results
1 | B1 | 1 | – | –
2 | B2 | 7 | 2 | –
3 | B3 | 1 | – | –
4 | B4 | – | – | 4. longCTD + Dox + IFNG (LC-MS counts of the listed protein co-immunoprecipitated with DUX4-CTD bait longCTD, experiment 4, Dox + IFNG): 5; 4. mL1dL2 + Dox + IFNG [3]: 4; 4. + IFNG mix (LC-MS counts of the listed protein in anti-FLAG co-IP, experiment 4, IFNG, no doxycycline, mix, MB135 myoblasts): 5; 3. + Dox longCTD (bait longCTD, experiment 3, Dox only): 1; 3. + IFNg + Dox longCTD (bait longCTD): 2; SUM of PSMS: 17
5 | B5 | 27 | 1 | –
6 | B6 | – | – | 4. mL1dL2 + Dox + IFNG [3]: 3; 3. + IFNg + Dox longCTD (bait longCTD): 4; SUM of PSMS: 7
7 | B7 | 3 | 9 | –
8 | B8 | 5 | 5 | –
